Measured values reported in publication PMC11764660, “Self-Assembled Peptide Hydrogels PPI45 and PPI47: Novel Drug Candidates for Staphylococcus aureus Infection Treatment” (Gels, 2025).

Target: the molecule itself
Assay: transmission electron microscopy; peptide solution at its CMC on a copper grid, stained with phosphotungstic acid; monomers to fibres

Row | Protein | binding result
1 | GFGCNGPWSEDDMKCHNHCKSIKGYKGGYCAKGGFLCKCY (mutant of the fungal defensin plectasin (40 amino acids); numbers count on: the mature protein; Forms fibrils and gels by self-assembly; also called self-assembling variant PPI42; defensin-derived peptide PPI42; source: Pichia pastoris X-33 (pPICZαA), fermentation supernatant, purified by cation exchange chromatography) [PPI42] | binds
2 | GFGCNGPWNEDDMKCHNHCKSIKGYKGGYCAKGGFLCKCY (mutant of the fungal defensin plectasin, derived from PPI42 by S9N; numbers count on: the mature protein; S9N against the parent PPI42; also called PPI45:N9; source: Pichia pastoris X-33 (pPICZαA), fermentation supernatant, purified by cation exchange chromatography) [PPI45] | binds
3 | GFGCNGPWSEDDLRCHNHCKSIKGYKGGYCAKGGFLCKCY (mutant of the fungal defensin plectasin, derived from PPI42 by 13M14K to 13L14R; numbers count on: the mature protein; M13L and K14R against the parent PPI42; also called PPI47:L13 R14; source: Pichia pastoris X-33 (pPICZαA), fermentation supernatant, purified by cation exchange chromatography) [PPI47] | binds
